# Positions of bridges follow the written chain, without caps; N, C: chain ends. Non-standard residues stand in square brackets, D forms with d. Residues, ends and D or L forms follow the SMILES beside them. *: point of attachment. DOTA = O=C(O)CN1CCN(CC(=O)O)CCN(CC(=O)*)CCN(CC(=O)O)CC1; 1Nal = N[C@@H](Cc1cccc2ccccc12)C(=O)O; Thr(ol) = C[C@@H](O)[C@H](N)CO
# Assay: Radiolysis during labelling reaction, with and without EtOH as radiolytic scavenger
# Format: physicochemical
# Details: final product vial, radio-HPLC, single test
# Description: The considerably high percentage of radiolysis in the final product vial (FPV), caused by the presence of free radicals in solution (e.g., superoxide or hydroxyl radicals), impaired the establishment of the most favourable labelling conditions. Although not explicitly measured, for higher activity concentrations, the radiolysis percentage was anticipated to increase. Several compounds are known to act as radiolytic stabilizers and protect against radiolysis. Antioxidant compounds, such as ascorbic acid (AA) and gentisic acid (GA), are commonly known to protect against radiolysis and are mainly described in the literature for radiolabelling biomolecules with β^--emitting radionuclides (e.g., yttrium-90 and luthetium-177). Notwithstanding, these compounds might have a negative impact on copper-based radiopharmaceuticals, given the redox properties of copper. […] To evaluate the applicability of EtOH as a radiolytic scavenger for ^61Cu-based radiopharmaceuticals, a single test with and without EtOH was performed before establishing optimal labelling conditions. […] Compared with the labelling of [^61Cu]Cu-DOTA-NOC without EtOH (Figure 4A), it is evident that there is a significant decrease in the rate of radiolysis using the ethanol-based method (Figure 4B–D). […] Based on these findings, the use of EtOH was implemented in all further labelling formulations to act as a radiolytic stabilizing agent during the labelling reaction.
# Figure 4 Representative chromatograms of [^61Cu]Cu-DOTA-NOC, [^61Cu]Cu-DOTA-TOC and [^61Cu]Cu-DOTA-TATE without (A) and with (B–D) using EtOH (maximum 5 vol% EtOH) during the labelling reaction. Two different HPLC methods were used, as described in Table 4. For a more practical comparative analysis between chromatograms, raw data was normalised as percentage of total radioactivity. Percentage of radiolysis is the ratio of radiolysis counts to total counts. TEXT PRINTED IN THE PICTURE: (A) [^61Cu]Cu-DOTA-NOC: Radiolysis: > 15% | (B) [^61Cu]Cu-DOTA-NOC: Radiolysis: < 5% | (C) [^61Cu]Cu-DOTA-TOC: Radiolysis: < 1% | (D) [^61Cu]Cu-DOTA-TATE: Radiolysis: < 1%
# RCP was measured by HPLC (Agilent 1200 series HPLC system, Agilent Technologies, Santa Clara, CA, USA) equipped with a GABIStar NaI(Tl) radiometric detector (Raytest Isotopenmessgeraete GmbH, Straubenhardt, Germany) (20 μL sample volume). Two different methods (Table 4) were used, one for [^61Cu]Cu-DOTA-NOC (Method A) and a second to evaluate both [^61Cu]Cu-DOTA-TATE and [^61Cu]Cu-DOTA-TOC (Method B). An ACE 3 C18 150 × 3 mm HPLC column (ACE, Reading, UK) was used in both methods, and the flow was fixed at 0.6 mL/min.
# [1] = labelling with EtOH up to 300 μL (maximum 5 vol% EtOH)
SMILES,Radiolysis (ratio of radiolysis counts to total counts) [1],Radiolysis (ratio of radiolysis counts to total counts) (labelling without EtOH)
"C[C@@H](O)[C@@H]1NC(=O)[C@H](CCCCN)NC(=O)[C@@H](Cc2c[nH]c3ccccc23)NC(=O)[C@H](Cc2cccc3ccccc23)NC(=O)[C@@H](NC(=O)[C@@H](Cc2ccccc2)NC(=O)CN2CCN(CC(=O)O)CCN(CC(=O)O)CCN(CC(=O)O)CC2)CSSC[C@@H](C(=O)N[C@H](CO)[C@@H](C)O)NC1=O [[^61Cu]Cu-DOTA-NOC, metal not drawn] ({DOTA}-[dF]C[1Nal][dW]KTC[Thr(ol)]; disulfide 2-7 (inferred))",less than 5%,more than 15%
"C[C@@H](O)[C@H](NC(=O)[C@@H]1CSSC[C@H](NC(=O)[C@@H](Cc2ccccc2)NC(=O)CN2CCN(CC(=O)O)CCN(CC(=O)O)CCN(CC(=O)O)CC2)C(=O)N[C@@H](Cc2ccc(O)cc2)C(=O)N[C@H](Cc2c[nH]c3ccccc23)C(=O)N[C@@H](CCCCN)C(=O)N[C@@H]([C@@H](C)O)C(=O)N1)C(=O)O [[^61Cu]Cu-DOTA-TATE, metal not drawn]",less than 1%,
"C[C@@H](O)[C@@H]1NC(=O)[C@H](CCCCN)NC(=O)[C@@H](Cc2c[nH]c3ccccc23)NC(=O)[C@H](Cc2ccc(O)cc2)NC(=O)[C@@H](NC(=O)[C@@H](Cc2ccccc2)NC(=O)CN2CCN(CC(=O)O)CCN(CC(=O)O)CCN(CC(=O)O)CC2)CSSC[C@@H](C(=O)N[C@H](CO)[C@@H](C)O)NC1=O [[^61Cu]Cu-DOTA-TOC, metal not drawn]",less than 1%,
